Laboratory results from PMC8446450, “Autosomal Recessive Cutis Laxa 1C Mutations Disrupt the Structure and Interactions of Latent TGFβ Binding Protein-4” (Frontiers in Genetics, 2021).
Where a chain is given by its changes, count along the chain named. Numbers in names are those of the source. Like-named read-outs stand apart in the source and are kept apart here. One block for each molecule: values may come before it.

Legend:
Fibulin-4, full length = molecular target: T1, Fibulin-4, full length (UniProt O95967 24-443, biotin (biotinylated ligand on streptavidin biosensors, position not stated)); test: BLI; OctetRED96, immobilised full-length fibulin-4, NWT or C274G 1000-62.5 nM, 10 mM HEPES, 150 mM NaCl, pH 7.4, 0.005% Tween-20, 25°C; steady state analysis
T1 construct: full-length fibulin-4; source: expressed and purified as previously described (Choudhury et al., 2009)
T1 sequence (looked up): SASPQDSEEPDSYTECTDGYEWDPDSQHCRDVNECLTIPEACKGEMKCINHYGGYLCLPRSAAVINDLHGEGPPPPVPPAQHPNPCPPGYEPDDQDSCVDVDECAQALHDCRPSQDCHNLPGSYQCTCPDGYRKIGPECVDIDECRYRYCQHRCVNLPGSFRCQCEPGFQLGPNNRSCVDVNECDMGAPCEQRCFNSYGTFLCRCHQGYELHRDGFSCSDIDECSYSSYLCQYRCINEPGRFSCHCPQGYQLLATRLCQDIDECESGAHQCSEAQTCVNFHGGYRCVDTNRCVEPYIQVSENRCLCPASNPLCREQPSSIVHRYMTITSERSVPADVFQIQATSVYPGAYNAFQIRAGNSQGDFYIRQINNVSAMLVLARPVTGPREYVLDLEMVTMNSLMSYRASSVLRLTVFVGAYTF

[1] = molecular target: Latent TGFβ binding protein-4 (LTBP4S) C-terminal region, ARCL1C mutant C1286S (human); test: SPR; ProteOn, LTBP4 C-terminal constructs amine-coupled on GLC chip, fibrillin-1 PF3 injected 100-3.1 nM, 10 mM HEPES, 150 mM NaCl, pH 7.4, 0.005% Tween-20, 25°C; steady state (equilibrium) analysis
[2] = molecular target: T2, Tropoelastin (SHELdelta26A) (biotin where immobilised on streptavidin biosensors (position not given)); test: BLI
T2 chain: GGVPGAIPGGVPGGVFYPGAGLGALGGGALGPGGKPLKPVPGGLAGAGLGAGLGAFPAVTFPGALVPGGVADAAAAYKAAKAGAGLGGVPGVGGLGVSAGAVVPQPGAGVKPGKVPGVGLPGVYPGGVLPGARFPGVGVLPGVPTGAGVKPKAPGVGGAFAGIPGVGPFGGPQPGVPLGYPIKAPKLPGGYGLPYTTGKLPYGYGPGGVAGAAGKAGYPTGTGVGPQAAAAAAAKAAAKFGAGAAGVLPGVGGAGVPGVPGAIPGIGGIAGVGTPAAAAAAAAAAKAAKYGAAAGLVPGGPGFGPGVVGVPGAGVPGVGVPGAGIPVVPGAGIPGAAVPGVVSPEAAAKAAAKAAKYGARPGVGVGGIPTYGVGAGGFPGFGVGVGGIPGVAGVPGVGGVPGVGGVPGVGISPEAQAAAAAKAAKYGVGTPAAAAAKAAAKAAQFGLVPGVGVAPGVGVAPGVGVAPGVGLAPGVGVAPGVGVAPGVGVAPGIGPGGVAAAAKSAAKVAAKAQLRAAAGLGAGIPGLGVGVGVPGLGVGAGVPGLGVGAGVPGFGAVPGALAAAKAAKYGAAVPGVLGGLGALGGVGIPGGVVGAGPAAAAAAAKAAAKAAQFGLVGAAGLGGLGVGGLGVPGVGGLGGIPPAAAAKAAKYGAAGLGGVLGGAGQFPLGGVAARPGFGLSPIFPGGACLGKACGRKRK

[3] = molecular target: Tropoelastin (SHELdelta26A); test: BLI; OctetRED96, biotinylated tropoelastin on streptavidin biosensors, LTBP4 C-terminal constructs 375-23.4 nM, 10 mM HEPES, 150 mM NaCl, pH 7.4, 0.005% Tween-20, 25°C; steady state analysis
Fibrillin-1 PF3 fragment = molecular target: T3, Fibrillin-1 PF3 fragment (UniProt P35555 45-722); test: SPR; ProteOn, LTBP4 C-terminal constructs amine-coupled on GLC chip, fibrillin-1 PF3 injected 100-3.1 nM, 10 mM HEPES, 150 mM NaCl, pH 7.4, 0.005% Tween-20, 25°C; steady state (equilibrium) analysis; conditions: both partners purified
T3 construct: signal peptide in the construct; fibrillin-1 PF3 fragment, residues 1-722 (Rock et al., 2004); also called N-terminal region of fibrillin-1; source: purified
T3 sequence (P35555 45-722): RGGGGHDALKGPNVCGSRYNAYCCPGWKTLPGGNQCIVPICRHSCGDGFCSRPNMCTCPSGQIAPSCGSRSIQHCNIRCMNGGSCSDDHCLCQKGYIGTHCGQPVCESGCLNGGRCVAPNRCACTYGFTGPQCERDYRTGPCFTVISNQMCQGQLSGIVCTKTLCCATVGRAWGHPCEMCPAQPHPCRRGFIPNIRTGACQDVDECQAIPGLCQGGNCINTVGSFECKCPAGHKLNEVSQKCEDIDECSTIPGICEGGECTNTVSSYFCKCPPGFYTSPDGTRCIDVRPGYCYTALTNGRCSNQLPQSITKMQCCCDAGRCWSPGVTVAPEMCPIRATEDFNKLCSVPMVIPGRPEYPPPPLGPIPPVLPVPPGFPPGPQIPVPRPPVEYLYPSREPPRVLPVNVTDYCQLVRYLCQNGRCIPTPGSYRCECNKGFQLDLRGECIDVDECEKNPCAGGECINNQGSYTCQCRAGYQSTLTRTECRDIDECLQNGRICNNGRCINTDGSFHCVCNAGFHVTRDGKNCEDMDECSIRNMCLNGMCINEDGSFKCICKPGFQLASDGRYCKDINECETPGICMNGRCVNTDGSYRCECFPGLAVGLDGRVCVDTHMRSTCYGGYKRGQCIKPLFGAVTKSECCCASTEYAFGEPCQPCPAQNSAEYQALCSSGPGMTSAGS

Molecule: Fibrillin-1 PF3 fragment (from UniProt P35555 45-722) (domain or fragment)
- Kd [1]: 12.2 nM

B3: Latent TGFβ binding protein-4 (LTBP4S) C-terminal region, ARCL1C mutant C1286S (domain or fragment)
chain: RECYFDTAAPDACDNILARNVTWQECCCTVGEGWGSGCRIQQCPGTETAEYQSLCPHGRGYLAPSGDLSLRRDVDECQLFRDQVCKSGVCVNTAPGYSCYCSNGYYYHTQRLECIDNDECADEEPACEGGRCVNTVGSYHCTSEPPLVLDGSQRRCVSNESQSLDDNLGVCWQEVGADLVCSHPRLDRQATYTECCCLYGEAWGMDCALCPAQDSDDFEALCNVLRPPAYSPPRPGGFGLPYEYGPDLGPPYQGLPYGPELYPPPALPYDPYPPPPGPFARREAPYGAPRFDMPDFEDDGGPYGESEAPAPPGPGTRWPYRSRDTRRSFPEPEEPPEGGSYAGSLAEPYEELEAEECGILDGCTNGRCVRVPEGFTCRCFDGYRLDMTRMACVDINECDEAEAASPLCVNARCLNTDGSFRCICRPGFAPTHQPHHCAPARPRA
- Kd [2]: 65 nM
- Kd [3]: 151 nM

Continued, values first:

- Kd (Fibulin-4, full length): 177 nM
Molecule: Latent TGFβ binding protein-4 (LTBP4S) N-terminal region, ARCL1C mutant C274G (domain or fragment)

- Kd (Fibulin-4, full length; both partners purified): 1290 nM
B1: Latent TGFβ binding protein-4 (LTBP4S) N-terminal region, wild type (domain or fragment, human, UniProt Q8N2S1-2 29-394, looked up)
chain: GERLRVRFTPVVCGLRCVHGPTGSRCTPTCAPRNATSVDSGAPGGAAPGGPGFRAFLCPLICHNGGVCVKPDRCLCPPDFAGKFCQLHSSGARPPAPAVPGLTRSVYTMPLANHRDDEHGVASMVSVHVEHPQEASVVVHQVERVSGPWEEADAEAVARAEAAARAEAAAPYTVLAQSAPREDGYSDASGFGYCFRELRGGECASPLPGLRTQEVCCRGAGLAWGVHDCQLCSERLGNSERVSAPDGPCPTGFERVNGSCEDVDECATGGRCQHGECANTRGGYTCVCPDGFLLDSSRSSCISQHVISEAKGPCFRVLRDGGCSLPILRNITKQICCCSRVGKAWGRGCQLCPPFGSEGFREICPA
notes: numbers count on: LTBP4S; N-glycosylated (PNGase-F shift); Biotinylated when immobilised on streptavidin biosensors in the fibronectin BLI experiment (general BLI methods); also called NWT; LTBP4 N-terminal region

- Kd [2]: 6.4 nM
- Kd [3]: 57 nM
- Kd (Fibrillin-1 PF3 fragment): 15.8 nM
B2: Latent TGFβ binding protein-4 (LTBP4S) C-terminal region, wild type (domain or fragment, human, UniProt Q8N2S1-2 1114-1557, looked up)
chain: B3 chain with S143C
notes: numbers count on: LTBP4S; N-glycosylated (PNGase-F shift); also called CWT; C WT
